Test results from patent US20230365705A1 (DYNAMICURE BIOTECHNOLOGY, published 2023).
Values belong to the binder of their own block, whether it stands above or below them.

What was measured:
[1] = target: T1, Human CD93 on cells (human CD93 expressing CHO cells; HUVEC, U937 and KG1a cells) (human, UniProt Q9NPY3 22-652); experiment: flow cytometry, CHO-hCD93 cells, APC-A
T1 construct: whole, on cells; also called hCD93 expressing CHO cells; hCD93 CHO cells
T1 sequence (looked up): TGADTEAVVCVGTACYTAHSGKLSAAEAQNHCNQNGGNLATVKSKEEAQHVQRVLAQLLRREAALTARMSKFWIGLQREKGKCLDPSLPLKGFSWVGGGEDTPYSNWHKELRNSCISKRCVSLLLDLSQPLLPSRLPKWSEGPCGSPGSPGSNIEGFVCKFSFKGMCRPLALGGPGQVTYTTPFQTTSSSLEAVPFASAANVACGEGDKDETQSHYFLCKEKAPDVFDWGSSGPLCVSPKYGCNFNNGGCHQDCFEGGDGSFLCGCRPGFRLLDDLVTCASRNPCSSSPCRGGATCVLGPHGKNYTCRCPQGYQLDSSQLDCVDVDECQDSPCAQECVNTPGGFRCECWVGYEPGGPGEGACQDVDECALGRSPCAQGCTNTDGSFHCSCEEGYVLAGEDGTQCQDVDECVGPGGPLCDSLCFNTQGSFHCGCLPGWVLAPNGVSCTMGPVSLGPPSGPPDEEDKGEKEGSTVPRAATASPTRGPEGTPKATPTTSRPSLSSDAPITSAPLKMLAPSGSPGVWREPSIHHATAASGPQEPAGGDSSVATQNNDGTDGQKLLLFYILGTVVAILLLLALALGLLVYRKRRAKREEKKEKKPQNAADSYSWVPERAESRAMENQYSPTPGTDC

[2] = target: T1, Human CD93 on cells (human CD93 …); experiment: flow cytometry titration, CHO-hCD93 cells
Description: (§1) Human CD93 expressing CHO cells were detached by incubation with TrypLE reagents (Thermo Fisher), which preserves the integrity of CD93 on the cell surface. Then the cells were incubated with serial diluted anti-CD93 antibodies for 30 minutes at 4° C. After washing by FACS buffer, the cells were incubated with Alexa Fluor 647 conjugated anti-human IgG (Jackson ImmunoResearch) for 30 minutes in 4° C. After washing by FACS buffer twice, the samples were acquired in NovoCyte Flow Cytometer and analyzed by NovoExpress software.

[3] = target: T1, Human CD93 on cells (human CD93 …); experiment: summary table, column FACS (HUVEC cells); 2 weeks at 40 C
Description: as §1, with “HUVEC” for “Human CD93 expressing CHO”

[4] = target: T1, Human CD93 on cells (human CD93 …); experiment: summary table, column FACS (HUVEC cells); 4 weeks at 40 C
Description: as §1, with “HUVEC” for “Human CD93 expressing CHO”

[5] = target: T2, Human CD93 recombinant protein (Sino Biological Inc, Catalog #12589-H08H) (human, UniProt Q9NPY3 22-580); experiment: BLI (Octet QKe), biotinylated human CD93 on streptavidin biosensors
T2 construct: Biotinylated (EZ-LINK NHS-PEG4 biotin) in the BLI assays; also called hCD93; His-tagged human CD93
T2 sequence (looked up): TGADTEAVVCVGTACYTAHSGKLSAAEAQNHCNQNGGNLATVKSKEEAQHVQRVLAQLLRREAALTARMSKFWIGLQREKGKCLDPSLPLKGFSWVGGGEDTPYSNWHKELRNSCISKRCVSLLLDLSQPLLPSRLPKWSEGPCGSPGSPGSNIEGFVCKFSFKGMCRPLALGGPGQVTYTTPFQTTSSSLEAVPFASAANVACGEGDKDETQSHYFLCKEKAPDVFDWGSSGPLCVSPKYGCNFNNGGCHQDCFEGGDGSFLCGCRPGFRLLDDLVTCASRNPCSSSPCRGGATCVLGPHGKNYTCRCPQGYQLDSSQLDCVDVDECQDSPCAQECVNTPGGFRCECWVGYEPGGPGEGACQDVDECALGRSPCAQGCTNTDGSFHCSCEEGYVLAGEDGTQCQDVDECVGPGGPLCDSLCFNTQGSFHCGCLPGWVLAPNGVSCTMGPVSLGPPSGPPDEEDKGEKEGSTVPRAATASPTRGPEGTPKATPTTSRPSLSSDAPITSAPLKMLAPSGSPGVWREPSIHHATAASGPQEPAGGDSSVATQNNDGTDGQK
Description: The binding affinity of anti-CD93 antibodies was determined with bio-layer interferometry using Octet QKe (Fortebio). […] Human CD93 recombinant protein (Sino Biological Inc, Catalog #12589-H08H) was biotinylated using EZ-LINK NHS-PEG4 biotin (Thermo Fisher Scientific). Streptavidin biosensors (Fortebio) were used to load biotinylated CD93 protein (300 seconds in 5 μg/ml). Baseline was stabilized for 60 seconds in 1×kinetics buffer (Fortebio) before anti-CD93 antibodies, at a serial dilution, were allowed to associate for 300 seconds with captured protein. Then the sensors were dissociated in 1× kinetics buffer for 600 seconds. […] (FIG. 41).

[6] = target: T1, Human CD93 on cells (human CD93 …); experiment: flow cytometry titration, HUVEC cells; antibody stored 2 weeks at 40 C
Description: as §1, with “HUVEC” for “Human CD93 expressing CHO”

[7] = target: T1, Human CD93 on cells (human CD93 …); experiment: flow cytometry titration, HUVEC cells; antibody stored 4 weeks at 40 C; unit printed as nMM
Description: as §1, with “HUVEC” for “Human CD93 expressing CHO”

[8] = target: T1, Human CD93 on cells (human CD93 …); experiment: flow cytometry blocking assay, CHO-hCD93 cells; blocked ligand hMMRN2 495-674 at 0.1 ug/ml, APC anti-His
Description: Then the cells were incubated with hMMRN2₄₉₅₋₆₇₄ at 0.1 μg/ml. […] After washing with FACS buffer twice, the samples were analyzed, and data acquired in NovoCyte Flow. Recombinant his tagged hMMRN2₄₉₅₋₆₇₄ was produced internally in E. Coli following routine procedure.

- M3 gate, % of cells [1]: 98.7%
B1: 16E4 (hybridoma) (antibody, IgG2a, V domains shown)
VH: QVQLQQPGAELVKPGASVKLSCKASGYTFTSYWMHWVKQRPGQGLEWIGEIDPSASYTYYNQKFKGKATLTVDKSSSTAYMQLSSLTSEDSAVYYCARSVYYGNKYFDVWGAGTTVTVSS
VL: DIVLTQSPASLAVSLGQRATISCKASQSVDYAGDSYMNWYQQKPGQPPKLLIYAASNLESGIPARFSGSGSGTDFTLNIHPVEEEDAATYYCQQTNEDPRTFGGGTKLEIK
notes: also called 16E4 mAb; 16E4 mIgG2a

- EC50 [2]: 0.388 nM
B2: h16E4 (humanized 16E4, VH4+VL6) (antibody, V domains shown)
VH: QVQLVQSGAEVKKPGASVKVSCKASGYTFTSYWMHWVRQAPGQGLEWMGEIDPSASYTYYNQKFKGRVTMTRDKSSSTVYMELSSLTSEDSAVYYCARSVYYGNKYFDVWGAGTTVTVSS
VL: DIQMTQSPSTLSASVGDRVTITCKASQSVDYAGDSYMNWYQQKPGKAPKLLIYAASNLESGVPSRFSGSGSGTEFTLTISSLQPDDFATYYCQQTNEDPRTFGGGTKLEIK
notes: Detected with anti-human IgG, so a human Fc

- EC50 [3]: 1.17 nM
- EC50 [4]: 1.12 nM
- Kd [5]: 0.472 nM
- koff [5]: 0.000321 s⁻¹
- kon [5]: 681000 M⁻¹ s⁻¹
- EC50 [6]: 1.17 nM
- EC50 [7]: 1.12 nM
- IC50 [8]: 0.173 nM
B3: h7F3 (humanized 7F3, VH3+VL3) (antibody, human IgG1, V domains shown)
VH: QVQLVQSGAEVKKPGASVKVSCKASGYTFTDYEMHWVRQAPGQGLEWMGGIDPETGDTAYNQNFKGRVTMTTDTSTSTAYMELRSLTSDDTAVYYCTNYGNLYYYAMDYWGQGTSVTVSS
VL: EIVLTQSPSSLSASVGDRVTITCRASSSVSSSYLHWYQQKPGKAPKLLIYSTSNLAFGVPSRFSGSGSGTSYTFTISSLQPEDIATYYCQQYSGYPLTFGSGTKLEIK
notes: also called humanized 7F3-hIgG1
